{"source": "paper PMC9426492", "about": "“TrmB Family Transcription Factor as a Thiol-Based Regulator of Oxidative Stress Response” (mBio, 2022)", "proteins": {"B1": {"name": "OxsR (HVO_2970) wild type with a C-terminal StrepII tag (natural protein, Haloferax volcanii, UniProt D4GY41 1-123, looked up)", "chain": "MADAPDMGELMETEDPNFGQVLACVFGIQSHESRTYLALLDNPGSTVAELAEVLDRDRSNVNRSLTTLLDKGLTERKRRLLDPGGYVYQYTATPLPEAKEMMHAALDEWAEDVHARIDAFGES", "notes": "123 aa, 14 kDa; UniProtKB D4GY41; also called OxsR-StrepII; OxsR wt; source: H. volcanii SH125 (H26 ΔoxsR) carrying pJAM4019, purified (Strep-Tactin Superflow Plus resin, 2 M NaCl buffers); not shown: StrepII, C-terminal, kept"}}, "biological_target": "the molecule itself", "assay": "non-reducing SDS-PAGE (intersubunit disulfide bond assay); purified StrepII-tagged protein dialysed overnight in 100 mM Tris-Cl pH 7.5, 2 M NaCl; no reducing reagent; diluted 1:1 in SDS-loading buffer, boiled 10 min, 16% SDS-PAGE, Coomassie stain; shows only covalently (disulfide) linked subunits", "data": [{"protein": "B1", "values": [{"measurement": "binding result", "value": "binds"}]}]}
